Experimental findings from patent publication US20140206609A1 (Sanofi, published 2014) are described below.

*1 amine or outer side, *2 acyl side, *3 side chain or, on linkers, in order; H or OH if unused. Where no end group is shown, it is not given here. Side-chain parts run from the residue outwards. [ ]: non-standard residue; d: D form. The star is where a group is joined. γGlu = O=C(O)[C@H](CCC(=O)[*:2])N[*:1]; Stearoyl = CCCCCCCCCCCCCCCCCC(=O)*; Palmitoyl = CCCCCCCCCCCCCCCC(=O)*; Aib = CC(C)(N)C(=O)O; βAla = NCCC(=O)O

The labels stand for the following.
T1: human GIP receptor (human, UniProt P48546 22-466)
T1 sequence (looked up): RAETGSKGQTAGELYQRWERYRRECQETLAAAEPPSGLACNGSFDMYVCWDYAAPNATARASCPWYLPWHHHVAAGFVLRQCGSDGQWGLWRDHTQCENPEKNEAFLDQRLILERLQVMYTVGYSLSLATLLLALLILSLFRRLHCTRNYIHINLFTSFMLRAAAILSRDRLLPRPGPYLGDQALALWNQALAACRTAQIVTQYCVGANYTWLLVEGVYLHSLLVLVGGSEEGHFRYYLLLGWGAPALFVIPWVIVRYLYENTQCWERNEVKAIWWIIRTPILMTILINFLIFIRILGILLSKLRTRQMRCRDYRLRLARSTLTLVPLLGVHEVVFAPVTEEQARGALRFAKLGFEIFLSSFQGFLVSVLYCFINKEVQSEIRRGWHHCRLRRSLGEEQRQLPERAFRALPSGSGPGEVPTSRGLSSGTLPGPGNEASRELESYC

B1: SEQ ID NO: 38 (peptide)
peptide: Y[Aib]QGTFTSDLSIQK([γGlu-Palmitoyl])DKRAA[Aib]EFIEWLKNTGPSSGAPPPS-NH2
modifications: N-terminus assumed
SMILES: CCCCCCCCCCCCCCCC(=O)N[C@@H](CCC(=O)NCCCC[C@H](NC(=O)[C@H](CCC(N)=O)NC(=O)[C@@H](NC(=O)[C@H](CO)NC(=O)[C@H](CC(C)C)NC(=O)[C@H](CC(=O)O)NC(=O)[C@H](CO)NC(=O)[C@@H](NC(=O)[C@H](Cc1ccccc1)NC(=O)[C@@H](NC(=O)CNC(=O)[C@H](CCC(N)=O)NC(=O)C(C)(C)NC(=O)[C@@H](N)Cc1ccc(O)cc1)[C@@H](C)O)[C@@H](C)O)[C@@H](C)CC)C(=O)N[C@@H](CC(=O)O)C(=O)N[C@@H](CCCCN)C(=O)N[C@@H](CCCNC(=N)N)C(=O)N[C@@H](C)C(=O)N[C@@H](C)C(=O)NC(C)(C)C(=O)N[C@@H](CCC(=O)O)C(=O)N[C@@H](Cc1ccccc1)C(=O)N[C@H](C(=O)N[C@@H](CCC(=O)O)C(=O)N[C@@H](Cc1c[nH]c2ccccc12)C(=O)N[C@@H](CC(C)C)C(=O)N[C@@H](CCCCN)C(=O)N[C@@H](CC(N)=O)C(=O)N[C@H](C(=O)NCC(=O)N1CCC[C@H]1C(=O)N[C@@H](CO)C(=O)N[C@@H](CO)C(=O)NCC(=O)N[C@@H](C)C(=O)N1CCC[C@H]1C(=O)N1CCC[C@H]1C(=O)N1CCC[C@H]1C(=O)N[C@@H](CO)C(N)=O)[C@@H](C)O)[C@@H](C)CC)C(=O)O
B2: SEQ ID NO: 8 (peptide)
peptide: Y[Aib]QGTFTSDLSIQK([γGlu-Palmitoyl])EKRAA[Aib]EFIEWLKNTGPSSGAPPPS-NH2
modifications: N-terminus assumed
SMILES: CCCCCCCCCCCCCCCC(=O)N[C@@H](CCC(=O)NCCCC[C@H](NC(=O)[C@H](CCC(N)=O)NC(=O)[C@@H](NC(=O)[C@H](CO)NC(=O)[C@H](CC(C)C)NC(=O)[C@H](CC(=O)O)NC(=O)[C@H](CO)NC(=O)[C@@H](NC(=O)[C@H](Cc1ccccc1)NC(=O)[C@@H](NC(=O)CNC(=O)[C@H](CCC(N)=O)NC(=O)C(C)(C)NC(=O)[C@@H](N)Cc1ccc(O)cc1)[C@@H](C)O)[C@@H](C)O)[C@@H](C)CC)C(=O)N[C@@H](CCC(=O)O)C(=O)N[C@@H](CCCCN)C(=O)N[C@@H](CCCNC(=N)N)C(=O)N[C@@H](C)C(=O)N[C@@H](C)C(=O)NC(C)(C)C(=O)N[C@@H](CCC(=O)O)C(=O)N[C@@H](Cc1ccccc1)C(=O)N[C@H](C(=O)N[C@@H](CCC(=O)O)C(=O)N[C@@H](Cc1c[nH]c2ccccc12)C(=O)N[C@@H](CC(C)C)C(=O)N[C@@H](CCCCN)C(=O)N[C@@H](CC(N)=O)C(=O)N[C@H](C(=O)NCC(=O)N1CCC[C@H]1C(=O)N[C@@H](CO)C(=O)N[C@@H](CO)C(=O)NCC(=O)N[C@@H](C)C(=O)N1CCC[C@H]1C(=O)N1CCC[C@H]1C(=O)N1CCC[C@H]1C(=O)N[C@@H](CO)C(N)=O)[C@@H](C)O)[C@@H](C)CC)C(=O)O
B3: SEQ ID NO: 15 (peptide)
peptide: Y[Aib]EGTFTSDLSIQK([γGlu-Stearoyl])EKRAA[Aib]EFIEWLKNTGPSSGAPPPS-NH2
modifications: N-terminus assumed
SMILES: CCCCCCCCCCCCCCCCCC(=O)N[C@@H](CCC(=O)NCCCC[C@H](NC(=O)[C@H](CCC(N)=O)NC(=O)[C@@H](NC(=O)[C@H](CO)NC(=O)[C@H](CC(C)C)NC(=O)[C@H](CC(=O)O)NC(=O)[C@H](CO)NC(=O)[C@@H](NC(=O)[C@H](Cc1ccccc1)NC(=O)[C@@H](NC(=O)CNC(=O)[C@H](CCC(=O)O)NC(=O)C(C)(C)NC(=O)[C@@H](N)Cc1ccc(O)cc1)[C@@H](C)O)[C@@H](C)O)[C@@H](C)CC)C(=O)N[C@@H](CCC(=O)O)C(=O)N[C@@H](CCCCN)C(=O)N[C@@H](CCCNC(=N)N)C(=O)N[C@@H](C)C(=O)N[C@@H](C)C(=O)NC(C)(C)C(=O)N[C@@H](CCC(=O)O)C(=O)N[C@@H](Cc1ccccc1)C(=O)N[C@H](C(=O)N[C@@H](CCC(=O)O)C(=O)N[C@@H](Cc1c[nH]c2ccccc12)C(=O)N[C@@H](CC(C)C)C(=O)N[C@@H](CCCCN)C(=O)N[C@@H](CC(N)=O)C(=O)N[C@H](C(=O)NCC(=O)N1CCC[C@H]1C(=O)N[C@@H](CO)C(=O)N[C@@H](CO)C(=O)NCC(=O)N[C@@H](C)C(=O)N1CCC[C@H]1C(=O)N1CCC[C@H]1C(=O)N1CCC[C@H]1C(=O)N[C@@H](CO)C(N)=O)[C@@H](C)O)[C@@H](C)CC)C(=O)O
B4: SEQ ID NO: 18 (peptide)
peptide: Y[Aib]EGTFTSDLSIQK([βAla-βAla-Stearoyl])EKRAA[Aib]EFIEWLKNTGPSSGAPPPS-NH2
modifications: N-terminus assumed
SMILES: CCCCCCCCCCCCCCCCCC(=O)NCCC(=O)NCCC(=O)NCCCC[C@H](NC(=O)[C@H](CCC(N)=O)NC(=O)[C@@H](NC(=O)[C@H](CO)NC(=O)[C@H](CC(C)C)NC(=O)[C@H](CC(=O)O)NC(=O)[C@H](CO)NC(=O)[C@@H](NC(=O)[C@H](Cc1ccccc1)NC(=O)[C@@H](NC(=O)CNC(=O)[C@H](CCC(=O)O)NC(=O)C(C)(C)NC(=O)[C@@H](N)Cc1ccc(O)cc1)[C@@H](C)O)[C@@H](C)O)[C@@H](C)CC)C(=O)N[C@@H](CCC(=O)O)C(=O)N[C@@H](CCCCN)C(=O)N[C@@H](CCCNC(=N)N)C(=O)N[C@@H](C)C(=O)N[C@@H](C)C(=O)NC(C)(C)C(=O)N[C@@H](CCC(=O)O)C(=O)N[C@@H](Cc1ccccc1)C(=O)N[C@H](C(=O)N[C@@H](CCC(=O)O)C(=O)N[C@@H](Cc1c[nH]c2ccccc12)C(=O)N[C@@H](CC(C)C)C(=O)N[C@@H](CCCCN)C(=O)N[C@@H](CC(N)=O)C(=O)N[C@H](C(=O)NCC(=O)N1CCC[C@H]1C(=O)N[C@@H](CO)C(=O)N[C@@H](CO)C(=O)NCC(=O)N[C@@H](C)C(=O)N1CCC[C@H]1C(=O)N1CCC[C@H]1C(=O)N1CCC[C@H]1C(=O)N[C@@H](CO)C(N)=O)[C@@H](C)O)[C@@H](C)CC

human glucagon receptor, sequence (P47871 26-477): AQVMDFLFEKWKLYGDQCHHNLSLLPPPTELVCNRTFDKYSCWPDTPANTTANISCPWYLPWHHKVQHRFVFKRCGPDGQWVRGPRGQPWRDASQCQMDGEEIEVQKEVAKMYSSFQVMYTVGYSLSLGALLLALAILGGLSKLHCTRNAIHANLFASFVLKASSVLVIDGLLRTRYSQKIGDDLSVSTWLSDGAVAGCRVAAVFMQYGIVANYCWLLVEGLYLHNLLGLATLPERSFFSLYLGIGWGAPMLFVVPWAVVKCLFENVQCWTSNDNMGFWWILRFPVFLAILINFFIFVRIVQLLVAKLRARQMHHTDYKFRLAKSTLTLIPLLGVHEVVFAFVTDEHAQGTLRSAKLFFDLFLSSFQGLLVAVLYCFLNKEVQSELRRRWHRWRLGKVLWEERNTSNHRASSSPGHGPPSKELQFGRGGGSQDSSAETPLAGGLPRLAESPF

The first test deals with T1, human GIP receptor. Kind of test: cell-based or functional assay.
Regarding B1, the “EC50 hGIP R [pM]” value turned out to be 11.2 pM.
Consider B2, for which the “EC50 hGIP R [pM]” value was found to be 9.8 pM.
On to B3, for which the “EC50 hGIP R [pM]” value came out at 8.2 pM.

The next test addresses human GLP-1 receptor (human, UniProt P43220 24-463). Kind of test: cell-based or functional assay.
Regarding B1, the “EC50 hGLP-1 R [pM]” value amounted to 6.7 pM.
On to B2, for which the “EC50 hGLP-1 R [pM]” value stood at 5.3 pM.
B4: the “EC50 hGLP-1 R [pM]” value is 7.6 pM.

Another test addresses human glucagon receptor (human, UniProt P47871 26-477). Kind of test: cell-based or functional assay.
In the case of B1, the “EC50 hGLUC R [pM]” value amounted to 11.4 pM.
B2: the “EC50 hGLUC R [pM]” value was found to be 18.3 pM.
Regarding B3, the “EC50 hGLUC R [pM]” value was 5810 pM.
For the molecule B4, the “EC50 hGLUC R [pM]” value came to 4950 pM.
